Target: FLAG-Pen-2 (human) (UniProt Q9NZ42)
Assay: STEM mass measurement

Sequence of UniProt Q9NZ42 (Q9NZ42 whole entry): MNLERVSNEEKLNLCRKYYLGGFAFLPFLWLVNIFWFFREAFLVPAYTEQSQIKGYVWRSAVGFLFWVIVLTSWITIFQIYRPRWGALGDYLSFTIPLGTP

- stoichiometry N: 1
Substance: Aph1α2-HA (from UniProt Q96BI3 1-265) (natural protein)
